Laboratory results published in PMC4906247.

Key:
[1] = molecular target: hDAPK2 CD + ARD BL mutant (Arg47, Arg50, Arg53, Arg54 to glutamate) (human); test: SAXS; EMBL P12 (PETRA-III), 2.0-15.0 mg/ml, 283 K; monomer/dimer equilibrium mixture fitted (OLIGOMER)
[2] = molecular target: calcium/calmodulin on Sepharose 4B (Sepharose 4B-CaM) (UniProt P0DP23); test: pull-down; CaM pull-down of purified hDAPK2 variants, SDS-PAGE with Coomassie blue staining, three repetitions
[3] = molecular target: CrAsH-tagged calmodulin, calcium-bound (Ca^2+/CrAsH-CaM) (UniProt P0DP23); test: fluorescence polarisation; fluorescence anisotropy, purified hDAPK2 CD + ARD variants titrated against Ca2+/CrAsH-CaM; KD estimated by non-linear regression, one-site specific binding (Prism), three experiments
[4] = molecular target: hDAPK2 CD + ARD W305D, BiFC construct (human); test: split reporter (BiFC, NanoBiT); bimolecular fluorescence complementation in HEK293T cells, readout normalized to protein expression; endogenous Ca2+/CaM present
[5] = molecular target: calcium/calmodulin on Sepharose 4B (Sepharose 4B-CaM) (UniProt P0DP23); test: pull-down; CaM pull-down of hDAPK2 variants from transfected HEK293T cells on Sepharose 4B-CaM, EGTA-mediated elution, western blot, three replicates

Row | Kd [3] | Substance | other results
1 | – | hDAPK2 CD + ARD BL mutant (Arg47, Arg50, Arg53, Arg54 to glutamate) (domain or fragment) | percent monomer [1]: 89%; percent of the Ca2+/CaM binding of WT [2]: 46 % of WT
2 | < 0.0035 µM | hDAPK2 CD + ARD S308A, D220K (domain or fragment) | –
3 | < 0.0035 µM | hDAPK2 CD + ARD S308A, L226R (domain or fragment) | –
4 | – | hDAPK2 CD + ARD W305D, BiFC construct (domain or fragment) | fold increase of the BiFC signal [4]: > 5 fold
5 | 9.7 µM | hDAPK2 CD + ARD W305D, D220K (domain or fragment) | –
6 | 2.7 µM | hDAPK2 CD + ARD W305D, L226R (domain or fragment) | –
7 | – | hDAPK2 W305D D220K mutant expressed in HEK293T cells (CaM pull-down from lysate) (natural protein) | fold increase of Ca2+/CaM binding against hDAPK2 W305D [5]: 2 fold
